According to patent US20210238289A1 (Biogen, published 2021):
Where a chain is given by its changes, count along the chain named. Names may count otherwise. Each block holds one binder with its values, some of them ahead of it.

Assays:
[1] = target: T1, CD16 (FcγRIIIa V158) (UniProt P08637 17-208); assay: solution competition SPR (Biacore)
T1 construct: V158 allotype as printed
Method: (§1) Binding to Fcγ receptors was analyzed using solution affinity surface plasmon resonance (ref Day E S, Cachero T G, Qian F, Sun Y, Wen D, Pelletier M, Hsu Y M, Whitty A. Selectivity of BAFF/BLyS and APRIL for binding to the TNF family receptors BAFFR/BR3 and BCMA. Biochemistry. 2005 Feb. 15; 44(6):1919-31.) The method utilizes conditions of so-called “mass-transport-limited” binding, in which the initial rate of ligand binding (protein binding to the senor chip) is proportional to the concentration of ligand in solution (ref BIApplications Handbook (1994) Chapter 6: Concentration measurement, pp 6-1-6-10, Pharmacia Biosensor AB). Under these conditions, binding of the soluble analyte (protein flowing over chip surface) to the immobilized protein on the chip is fast compared to the diffusion of the analyte into the dextran matrix on the chip surface. Therefore, the diffusion properties of the analyte and the concentration of analyte in solution flowing over the chip surface determine the rate at which analyte binds to the chip. In this experiment, the concentration of free Fc receptor in solution is determined by the initial rate of binding to a CM5 Biacore chip containing an immobilized IgG1 MAb. Into these Fc receptor solutions were titrated the stability engineered constructs (see Table 10.1 below). […] Initial binding rates were obtained from raw sensorgram data (FIG. 14). […] The results are shown in Table 10.1 and reported as the average of two titrations.

[2] = target: T2, CD64 (FcγRI) (UniProt P12314 16-288, limits assumed); assay: solution competition SPR (Biacore); construct titrated into receptor, free receptor read on immobilized IgG1 MAb
Method: as §1

[3] = target: T1, CD16 (FcγRIIIa V158); assay: as above
Method: as §1

[4] = target: T3, human C1q (human, UniProt P02745 23-245; P02746 28-253; P02747 29-245); assay: C1q ELISA
T3 construct: Bought protein; also called complement factor C1q; Sigma human C1q (C0660)
Method: The C1q binding assay was be performed by coating 96 well Maxisorb ELISA plates (Nalge-Nunc Rochester, N.Y., USA) with 50 μl recombinant soluble human CD40 ligand at 10 ug/ml overnight at 4° C. in PBS. The wells were aspirated and washed three times with wash buffer (PBS, 0.05% Tween 20) and blocked for 1 hour with 200 µl/well of block/diluent buffer (0.1 M Na2HP04, pH 7.0, 1 M NaCl, 0.05% Tween 20, 1% gelatin). The antibodies were diluted in block/diluent buffer with 3-fold dilutions and incubated for 2 hours at room temperature.
After aspirating and washing as above, 50 pll/well of sheep anti C1q (Serotec AHP033), diluted 3, 560-fold in block/diluent buffer, were added. After incubation for 1 h at room temperature, the wells were aspirated and washed as above. 50 pll/well of donkey anti-sheep IgG HRP conjugate (Jackson ImmunoResearch 713-035-147) diluted to 1:10,000 in block/diluent were then added, and the wells incubated for 1 h at room temperature.
After aspirating and washing as above, 100 all TMB substrate (420 plM TMB, 0.004% H2O2 in 0.1 M sodium acetate/citric acid buffer, pH 4.9) were added and incubated for 2 min before the reaction was stopped with 100 ul 2 N sulfuric acid. The absorbance was read at 450 nm with a Softmax PRO instrument, and Softmax software was used to determine the relative binding affinity (C value) with a 4-parameter fit.

[5] = target: T1, CD16 (FcγRIIIa V158); assay: solution competition SPR (Biacore); text value differing from the table (100.2)
Method: Binding to Fcγ receptors was analyzed using solution affinity surface plasmon resonance (ref Day E S, Cachero T G, Qian F, Sun Y, Wen D, Pelletier M, Hsu Y M, Whitty A. Selectivity of BAFF/BLyS and APRIL for binding to the TNF family receptors BAFFR/BR3 and BCMA. Biochemistry. 2005 Feb. 15; 44(6):1919-31.) The method utilizes conditions of so-called “mass-transport-limited” binding, in which the initial rate of ligand binding (protein binding to the senor chip) is proportional to the concentration of ligand in solution (ref BIApplications Handbook (1994) Chapter 6: Concentration measurement, pp 6-1-6-10, Pharmacia Biosensor AB). Under these conditions, binding of the soluble analyte (protein flowing over chip surface) to the immobilized protein on the chip is fast compared to the diffusion of the analyte into the dextran matrix on the chip surface. Therefore, the diffusion properties of the analyte and the concentration of analyte in solution flowing over the chip surface determine the rate at which analyte binds to the chip. In this experiment, the concentration of free Fc receptor in solution is determined by the initial rate of binding to a CM5 Biacore chip containing an immobilized IgG1 MAb. Into these Fc receptor solutions were titrated the stability engineered constructs (see Table 10.1 below). […] Initial binding rates were obtained from raw sensorgram data (FIG. 14). […]

[6] = target: T2, CD64 (FcγRI); assay: solution competition SPR (Biacore)
Method: as §1

[7] = target: T4, α4β1 (VLA-4) as used in the competition ELISAs (UniProt P13612 34-970; P05556 21-728); assay: competition ELISA; mixture of mouse HP1/2 with test mAb binding to integrin
[8] = target: T4, α4β1 (VLA-4) as used in the competition …; assay: competition ELISA; integrin preincubated with test mAb, then murine HP1/2 as competing reagent
[9] = target: T5, human alpha-4 integrin (human, UniProt P13612 34-970, limits assumed); assay: in vitro binding affinity comparison; method not described
T5 construct: also called the human receptor

[10] = target: T6, cynomolgus monkey alpha-4 integrin (cynomolgus monkey, UniProt A0A2K5U6S2 34-970); assay: as above
T6 construct: also called cynomolgus alpha-4 integrin

[11] = target: T7, VLA receptors (alpha-4 integrin) of cynomolgus monkeys in vivo (cynomolgus monkey, UniProt A0A2K5U6S2 34-1032); assay: model-estimated (direct Emax PKPD model) EC50 for the formation of drug-bound VLA in cynomolgus monkeys
T7 construct: whole, on cells; Receptor occupancy measured in dosed animals; also called free VLA receptors
Text: HP1/2 human PKs were projected through allometric scaling on monkey PK parameters (k10, k12, k21 and V1). See Singh, A. P et al. The AAPS Journal, 17(2), 389-399. […] The inherent monkey parameters were directly applied to human including Km, V max and the PD parameters (Eₘ, EC₅₀, E₀ and V). […] See Muralidharan, K. K. et al. Journal of Clinical Pharmacology, 57(8), 1017-1030. The data were integrated using an empirical scaling approach combining the EC₅₀ parameter values obtained in monkeys (m) and humans (h), after adjusting for potency (Kd) differences across species: […]

[12] = target: T1, CD16 (FcγRIIIa V158); assay: solution competition SPR (Biacore); remark: listed apart in the source

B1: CN578 (hu5c8 IgG1 T299K, aglycosylated) (antibody)
heavy: not shown
light: DIVLTQSPATLSVSPGERATISCRASQRVSSSTYSYMHWYQQKPGQPPKLLIKYASNLESGVPARFSGSGSGTDFTLTISSVEPEDFATYYCQHSWEIPPTFGGGTKLEIKRTVAAPSVFIFPPSDEQLKSGTASVVCLLNNFYPREAKVQWKVDNALQSGNSQESVTEQDSKDSTYSLSSTLTLSKADYEKHKVYACEVTHQGLSSPVTKSFNRGEC
modifications: N-terminal Q largely converted to pyroglutamic acid (mass spectrometry)
notes: Mass spectrometry assigns HC 1-447, which fits VH (118) + IgG1 CH1 (98) + Fc moiety (231); also called aglycosylated IgG1 A299K
- IC50 [1]: 1320 µM
- IC50 [2]: 1420 µM

B3: EC300 (hu5c8 IgG4.P S228P, T307P, glycosylated) (antibody)
heavy: not shown
light: B1 light
notes: copies: 2 + 2
- IC50 [2]: 11.2 µM
- IC50 [3]: 564 µM

B4: EAG2296 (hu5c8 S228P/T299A, IgG4 CH2/IgG1 CH3 chimera, aglycosylated) (antibody)
heavy: QVQLVQSGAEVVKPGASVKLSCKASGYIFTSYYMYWVKQAPGQGLEWIGEINPSNGDTNFNEKFKSKATLTVDKSASTAYMELSSLRSEDTAVYYCTRSDGRNDMDSWGQGTLVTVSSASTKGPSVFPLAPCSRSTSESTAALGCLVKDYFPEPVTVSWNSGALTSGVHTFPAVLQSSGLYSLSSVVTVPSSSLGTKTYTCNVDHKPSNTKVDKRVESKYGPPCPPCPAPEFLGGPSVFLFPPKPKDTLMISRTPEVTCVVVDVSQEDPEVQFNWYVDGVEVHNAKTKPREEQFNSAYRVVSVLTVLHQDWLNGKEYKCKVSNKGLPSSIEKTISKAKGQPREPQVYTLPPSRDELTKNQVSLTCLVKGFYPSDIAVEWESNGQPENNYKTTPPVLDSDGSFFLYSKLTVDKSRWQQGNVFSCSVMHEALHNHYTQKSLSLSPG
light: B1 light
notes: also called pEAG2296; copies: 2 + 2
- binding result [4]: no binding
- IC50 [1]: 1320 µM

B5: IgG1 control antibody (hu5c8 IgG1, glycosylated) (antibody)
heavy: not shown
light: B1 light
notes: also called IgG1 wild type
- IC50 [5]: 105 µM
- IC50 [2]: 9.64 µM
- IC50 [3]: 100 µM

B6: EAG2287 (hu5c8 S228P/T299K, IgG4 CH2/IgG1 CH3 chimera, aglycosylated) (antibody)
heavy: B4 heavy with A297K
light: B1 light
notes: also called pEAG2287; copies: 2 + 2
- binding result [4]: no binding
- IC50 [6]: 4040 µM
- binding result [1]: no binding

B7: H1L1 (antibody, V domains shown)
VH: EVQLVQSGAEVKKPGATVKISCKASGFNIKDTYMHWVQQAPGKGLEWMGRIDPASGDTKYDPKFQVRVTITADTSTDTAYMELSSLRSEDTAVYYCADGMWVSTGYALDFWGQGTLVTVSS
VL: SIVMTQSPDSLAVSLGERATINCKASQSVTNDVAWYQQKPGQPPKLLIYYASNRYTGVPDRFSGSGSGTDFTLTISSLQAEDVAVYFCQQDYSSPYTFGQGTKVEIK
notes: also called Design H1 / Design L1
- IC50 [7]: 0.00455 µM
- IC50 [8]: 0.00167 µM

B12: Chimeric HP1/2 (antibody, human IgG1, V domains shown)
VH: EVQLQQSGAELVKPGASVKLSCTASGFNIKDTYMHWVKQRPEQGLEWIGRIDPASGDTKYDPKFQVKATITADTSSNTAWLQLSSLTSEDTAVYYCADGMWVSTGYALDFWGQGTTVTVSS
VL: SIVMTQTPKFLLVSAGDRVTITCKASQSVTNDVAWYQQKPGQSPKLLIYYASNRYTGVPDRFTGSGYGTDFTFTISTVQAEDLAVYFCQQDYSSPYTFGGGTKLEIK
notes: also called chimerized HP1/2 antibody; chimeric mAb
- IC50 [7]: 0.00164 µM
- IC50 [8]: 0.00106 µM

Next, values leading:

- IC50 [2]: 7.56 µM
- IC50 [3]: 380 µM
B2: EC326 (hu5c8 IgG4.P S228P, T307P, L309K, D399S, glycosylated) (antibody)
heavy: B4 heavy with A297T, T305P, L307K, R353Q, D354E, L356M, D397S, K407R, Q417E, P443L
light: B1 light
modifications: N-terminal Q largely converted to pyroglutamic acid; N-linked G0F/G1F/G2F glycans (mass spectrometry)
notes: copies: 2 + 2

- fold higher affinity than natalizumab Fab fragment [9]: > 19 fold
- fold higher affinity than natalizumab intact [9]: ~5 fold
- fold weaker affinity than to the human receptor [10]: ~5 fold
- EC50 [11]: 4.73 ng/mL
B8: HP1/2 H1/L3 huIgG4P agly (N297Q, EU Numbering)/IgG1 chimera (antibody, V domains shown)
VH: B7 VH
VL: SIVMTQSPDSLAVSLGERATINCKASQSVTNDVAWYQQKPGQPPKLLIYYASNRYTGVPDRFSGSGYGTDFTFTISSLQAEDVATYFCQQDYSSPYTFGQGTKVEIKR
notes: also called BIIB107; HP1/2 G4P agly/G1

- fold higher affinity than natalizumab Fab fragment [9]: ~6 fold
- fold weaker affinity than to the human receptor [10]: ~6 fold
B9: HP1/2 Fab fragment (Fab, V domains shown)
VH: B7 VH
VL: B8 VL

- IC50 [7]: 0.00446 µM
- IC50 [8]: 0.00187 µM
B10: H1L0 (antibody, V domains shown)
VH: B7 VH
VL: B7 VL with S1D, F87Y
notes: also called Design H1 / Design L0

- IC50 [7]: 0.00134 µM
- IC50 [8]: 0.0009 µM
B11: H1L2 (antibody, V domains shown)
VH: B7 VH
VL: B7 VL with S67Y
notes: also called Design H1 / Design L2

- IC50 [12]: 1320 µM
B13: EAG2476 (YC406-Fc; agly IgG4-Fc T299K, T307P, L309K, D399S) (other)
Fc: ESKYGPPCPPCPAPEFLGGPSVFLFPPKPKDTLMISRTPEVTCVVVDVSQEDPEVQFNWYVDGVEVHNAKTKPREEQFNSKYRVVSVLPVKHQDWLNGKEYKCKVSNKGLPSSIEKTISKAKGQPREPQVYTLPPSQEEMTKNQVSLTCLVKGFYPSDIAVEWESNGQPENNYKTTPPVLSSDGSFFLYSRLTVDKSRWQEGNVFSCSVMHEALHNHYTQKSLSLSLG
modifications: Aglycosylated through T299K. The Fc is a homodimer; one chain is given.
